Measurements published in patent US11649275B2, “Dual agonist fusion proteins” (Duke University, priority 2018, dated 2023).
“Also recorded” adds a separate entry of the source.

B1: GLP1-ELP: Single agonist control: GLP-1 analog fused to ELP of 120 VPGXaaG repeats, 4:1 Val:Ala; SEQ ID NO:16 (protein)
chain: AAHGEGTFTSDVSSYLEEQAAKEFIAWLVKGAGVGVPGVGVPGAGVPGVGVPGVGVPGVGVPGVGVPGAGVPGVGVPGVGVPGVGVPGVGVPGAGVPGVGVPGVGVPGVGVPGVGVPGAGVPGVGVPGVGVPGVGVPGVGVPGAGVPGVGVPGVGVPGVGVPGVGVPGAGVPGVGVPGVGVPGVGVPGVGVPGAGVPGVGVPGVGVPGVGVPGVGVPGAGVPGVGVPGVGVPGVGVPGVGVPGAGVPGVGVPGVGVPGVGVPGVGVPGAGVPGVGVPGVGVPGVGVPGVGVPGAGVPGVGVPGVGVPGVGVPGVGVPGAGVPGVGVPGVGVPGVGVPGVGVPGAGVPGVGVPGVGVPGVGVPGVGVPGAGVPGVGVPGVGVPGVGVPGVGVPGAGVPGVGVPGVGVPGVGVPGVGVPGAGVPGVGVPGVGVPGVGVPGVGVPGAGVPGVGVPGVGVPGVGVPGVGVPGAGVPGVGVPGVGVPGVGVPGVGVPGAGVPGVGVPGVGVPGVGVPGVGVPGAGVPGVGVPGVGVPGVGVPGVGVPGAGVPGVGVPGVGVPGVGVPGVGVPGAGVPGVGVPGVGVPGVGVPGVGVPGAGVPGVGVPGVGVPGVGVPGVGVPGAGVPGVGVPGVGVPG
B2: GLP1-ELP-FGF21: Fusion of GLP-1 analog, ELP (120 VPGXaaG repeats, 4:1 Val:Ala) and mutated murine FGF21; SEQ ID NO:15 (protein)
chain: AAHGEGTFTSDVSSYLEEQAAKEFIAWLVKGAGVGVPGVGVPGAGVPGVGVPGVGVPGVGVPGVGVPGAGVPGVGVPGVGVPGVGVPGVGVPGAGVPGVGVPGVGVPGVGVPGVGVPGAGVPGVGVPGVGVPGVGVPGVGVPGAGVPGVGVPGVGVPGVGVPGVGVPGAGVPGVGVPGVGVPGVGVPGVGVPGAGVPGVGVPGVGVPGVGVPGVGVPGAGVPGVGVPGVGVPGVGVPGVGVPGAGVPGVGVPGVGVPGVGVPGVGVPGAGVPGVGVPGVGVPGVGVPGVGVPGAGVPGVGVPGVGVPGVGVPGVGVPGAGVPGVGVPGVGVPGVGVPGVGVPGAGVPGVGVPGVGVPGVGVPGVGVPGAGVPGVGVPGVGVPGVGVPGVGVPGAGVPGVGVPGVGVPGVGVPGVGVPGAGVPGVGVPGVGVPGVGVPGVGVPGAGVPGVGVPGVGVPGVGVPGVGVPGAGVPGVGVPGVGVPGVGVPGVGVPGAGVPGVGVPGVGVPGVGVPGVGVPGAGVPGVGVPGVGVPGVGVPGVGVPGAGVPGVGVPGVGVPGVGVPGVGVPGAGVPGVGVPGVGVPGVGVPGVGVPGAGVPGVGVPGVGVPGVGVPGVGVPGAGVPGVGVPGVGVPGAYPIPDSSPLLQFGGQVRQRYLYTDDDQDTEAHLEIREDGTVVGAAHRSPESLLELKALKPGVIQILGVKASRFLCQQPDGALYGSPHFDPEACSFRERLLEDGYNVYQSEAHGLPLRLPQKDSPNQDATSWGPVRFLPMPGLLHEPQDQAGFLPPEPPDVGSSDPLSMVEGSQGRSPSYASG

What was measured:
GLP-1R = target: T1, GLP-1R (Homo sapiens, UniProt P43220); experiment: cAMP production assay (GLP-1R agonism, HEK293 cells with cAMP-inducible luciferase reporter); assay type: cell-based; settings: fusion of GLP1 to ELP or ELP-FGF21
T1 construct: expressed in transfected cells; host or cells: HEK293
T1 sequence (P43220 24-463, species assumed): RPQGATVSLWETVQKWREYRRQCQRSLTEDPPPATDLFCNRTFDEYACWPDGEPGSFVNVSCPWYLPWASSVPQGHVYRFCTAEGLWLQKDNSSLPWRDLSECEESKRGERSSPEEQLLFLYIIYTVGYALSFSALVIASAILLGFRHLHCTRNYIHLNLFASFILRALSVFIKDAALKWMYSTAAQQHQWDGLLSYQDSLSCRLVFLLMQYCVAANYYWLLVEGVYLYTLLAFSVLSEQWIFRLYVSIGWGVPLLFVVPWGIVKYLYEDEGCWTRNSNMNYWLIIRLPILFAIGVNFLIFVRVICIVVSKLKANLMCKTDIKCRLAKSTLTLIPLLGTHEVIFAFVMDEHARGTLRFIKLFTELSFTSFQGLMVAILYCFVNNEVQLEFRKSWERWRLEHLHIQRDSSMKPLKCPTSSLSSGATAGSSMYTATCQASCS
Description: This time, however, the intended cleavage substrate was a GA leader instead of the AA leader. […] Data were fit to a three-parameter dose-response curve to determine EC50s.
Cells were seeded at 1×10^5 cells/cm^2 into 96 well plates and adhered overnight. […] Luminescence of the supernatant samples were measured on a Victor X3 Plate Reader (Perkin Elmer) and normalized to zero drug treatment control wells. Data were fit to a three-parameter dose-response curve to determine EC50s using GraphPad Prism 8 software.

[1] = LCST phase behavior characterization (turbidity OD350 vs temperature); assay type: physicochemical
Description: Phase behavior characterization: The lower critical solution temperature (LCST) phase transition behavior of ELP fusion proteins was evaluated by monitoring the OD350 of solutions in PBS as a function of temperature on a Cary 300 UV-visible spectrophotometer equipped with a multicell thermoelectric temperature controller (Agilent Technologies, Santa Clara, Calif.). Heating and cooling were set to a rate of 1° C./min. The Tt was defined as the temperature at which the optical density reached 50% of its maximal value.

db/db mice [2] = experiment: Short-term co-treatment pilot study, 48 h after single s.c. injection; assay type: in vivo; settings: 48 h post-injection, 1000 nmol/kg s.c.
Description: (§1) Animals: In vivo studies were conducted in accordance with the AAALAC-accredited Duke Institutional Animal Care and Use Committee. 5-week-old B6.BKS(D)-Lepr^db/J (“db/db”) male mice were purchased from Jackson Laboratory (Bar Harbor, Me.) and maintained on a 12 h/12 h light/dark cycle with ad libitum access to food (LabDiet 5053) and water. Animals were group-housed and allowed 1-week acclimation before stratification into control and treatment groups based on baseline ambient blood glucose levels and body weights.
(§2) ELP fusion treatments: ELP fusion proteins were administered at 150-200 μM concentration via injection into the subcutaneous (s.c.) space on the hind flank. Animals received either a single s.c. injection for short-term studies or weekly s.c. injections for chronic studies. The “1:1 mixture” treatment group received a single injection containing an equimolar mixture of GLP1-ELP and ELP-FGF21, with the indicated dose referring to the dose of each respective fusion in the mixture. Vehicle control refers to PBS.
(§3) Ambient blood glucose measurements: Blood glucose levels were measured from a tail vein puncture with an AlphaTRAK 2 Blood Glucose Meter (Zoetis, Parsippany-Troy Hills, N.J.) every 24 h, 1-2 h following onset of the light cycle. […] Areas under the curve (AUCs) were calculated with GraphPad Prism 8 software using the trapezoidal rule and setting a Y=0 baseline. […]

[3] = Pharmacokinetic study of radiolabeled ELP fusion depots after s.c. injection; assay type: in vivo, mice; settings: for Cmax / TMAX / AUC / T1/2, ABS (absorption half-life): db/db mice, 1000 nmol/kg; for Cmax / TMAX / AUC / T1/2, ABS (absorption half-life) / steady plasma drug levels: single s.c. injection; for Cmax / TMAX: radiolabeled construct; for AUC: extrapolated to 16 days post-administration; for T1/2, ABS (absorption half-life): from slope of terminal linear regression; for R-squared, first-order model / R-squared, zero-order model / Regression model, first-order elimination (Log(y)): fit to terminal portion of plasma concentration vs time data; for steady plasma drug levels: out to day 10 / for at least 10 days
Description: Pharmacokinetic studies: Tyrosine residues on GLP1-ELP, ELP-FGF21, or GLP1-ELP-FGF21 fusion proteins were reacted with Na^125I radionuclide (Perkin Elmer) using Pierce Pre-Coated Iodination Tubes (Thermo Fisher Scientific) and the indirect method for iodination. Radiolabeled protein was purified from unreacted radionuclide with Zeba Spin Desalting Columns (Thermo Fisher Scientific). Activities of radiolabeled constructs were measured with an Atomlab 400 Dose Calibrator (Biodex, Shirley, N.Y.) and correlated to protein concentration. Mice received a single s.c. injection of radiolabeled fusion, and 10 μL blood samples were collected at frequent time points from the tail vein and stored at room temperature until radioactivity quantification. Sample counts were measured at the end of the study on a Wallac Wizard 1480 Automatic Gamma Counter (Perkin Elmer). An activity vs. count standard curve was used to convert sample counts to activities, and subsequently to moles of drug.
Pharmacokinetic analysis: The maximum serum concentration (Cmax) was recorded as observed, as well as time to reach Cmax (tmax). […] Absorption half-life (t1/2, abs) was estimated from the slope of the linear regression curve. When a drug administered at an extravascular site yields a terminal half-life greater than that resulting from an i.v. bolus, the terminal half-life reflects the absorption half-life.

db/db mice [4] = experiment: Chronic dosing study, weekly s.c. for four weeks (GTT, % HbA1c, body weight, food intake); assay type: in vivo; settings: for GTT AUC: i.p. glucose tolerance test 3 days after the first dosing cycle; for fasting plasma insulin: prior to glucose challenge; for change in % HbA1c from days 0 to 27: weekly 1000 nmol/kg s.c. for four weeks; for weight gain on chronic treatment: weekly 1000 nmol/kg s.c.
Description: as §1, §2
Food Intake: For food intake studies, animals were group-housed 4 per cage, and food pellets were weighed every 1-2 days. Total cage food intake was calculated for each time increment, averaged per animal, and summed over the course of the study to yield a cumulative food intake per mouse. N=8 treatment groups were divided into 2 cages, allowing for an n=2 food intake standard error calculation.

db/db mice [5] = experiment: GLP1-ELP control, single s.c. injection, glycemia and body weight for 10 days; assay type: in vivo; settings: 1000 nmol/kg single s.c.
Description: as §1, §2, §3

db/db mice [6] = experiment: Single s.c. injection dose study of GLP1-ELP-FGF21 (ambient blood glucose, body weight); assay type: in vivo
Description: as §1, §2
Ambient blood glucose measurements: Blood glucose levels were measured from a tail vein puncture with an AlphaTRAK 2 Blood Glucose Meter (Zoetis, Parsippany-Troy Hills, N.J.) every 24 h, 1-2 h following onset of the light cycle. Data are presented as either raw values, or as a magnitude change from a mean baseline established from three independent measurements collected prior to treatment. Areas under the curve (AUCs) were calculated with GraphPad Prism 8 software using the trapezoidal rule and setting a Y=0 baseline. Treatment group AUCs were normalized to the vehicle-treated group where indicated.

db/db mice [7] = experiment: Hypoglycemia safety check (16 h extended fast, glucose-stimulated insulin in GTT)
Description: Glucose tolerance test: Animals were fasted at the onset of the light cycle for 5 h with ad libitum access to water, then injected via intraperitoneal (i.p.) with 0.75 g/kg D-glucose. Blood glucose levels were measured from a tail snip with a Contour Blood Glucose Meter (Bayer, Leverkusen, Germany) at t=0 (before glucose injection), 10, 20, 30, 60, 90, and 120 min.
Extended fast blood glucose measurements: Animals were fasted for 16 h starting at 4:00 PM with ad libitum access to water, after which blood glucose levels were measured from the tail vein as described for ambient blood glucose measurements.
Blood parameters: 50 μL blood samples were collected from the tail veins following a 6 h fast using Microvette EDTA coated tubes (Sarstedt), which were placed on ice until centrifugation at 5000 rcf at 4° C. for 15 min. Plasma supernatants were stored at −80° C. until time of assay. Plasma insulin levels were quantified using the Mercodia Mouse Insulin ELISA, according to the manufacturers' instructions.

[8] = 5 h fast, 3 days after the first dosing cycle, 1000 nmol/kg s.c.
[9] = 3 days after the first dosing cycle

Row | Molecule | Cmax [3] [nM] | TMAX [3] [H] | AUC [3] [NM*D] | T1/2, ABS (absorption half-life) [3] [D] | R-squared, first-order model [3] | R-squared, zero-order model [3] | Regression model, first-order elimination (Log(y)) [3] | steady plasma drug levels [3] | fasting blood glucose levels (db/db mice [4]; [8]) [mg/dL] | food intake (db/db mice [4]; four-week treatment period) | GTT AUC (db/db mice [4]) | fasting plasma insulin (db/db mice [4]; [9]) | change in % HbA1c from days 0 to 27 (db/db mice [4]) | weight gain on chronic treatment (db/db mice [4]; four-week treatment period) [%] | further results
1 | B1 | 369 ± 14 | 4.8 ± 0.7 | 2023 ± 67 | 20.8 ± 3.2 | 0.61 | 0.58 | Log(y) = −0.01628x + 2.263 | around 100 nM | 167 ± 11 | significant reduction in food intake | outperformed ELP-FGF21 in improving glucose tolerance | significant increase in fasting plasma insulin | +1.0±0.2% | 25.3±1.9 | increase in GLP-1R EC50 compared to native GLP-1 (GLP-1R): approximately ten-fold; also recorded: ten-fold increase; Tt (transition temperature) ([1]; PBS, injection-relevant concentration of 200 μM): 27.5 °C; body weight, % change from pre-injection weight (db/db mice [2]): −0.2±0.6%; plasma levels of component of 1:1 mixed depot ([3]; 1:1 mixture, 1000 nmol/kg each, steady for 7 days): around 100 nM; % HbA1c elevation relative to control (db/db mice [4]; four-week study): significantly reduced % HbA1c elevation relative to control; effect on body weight / weight gain compared to vehicle (db/db mice [4]; four-week treatment period): significantly inhibited weight gain; weight gain compared to control mice (db/db mice [5]; daily for 10 days): significantly inhibited weight gain; ambient blood glucose levels after treatment (db/db mice [5]; reduced from >300 mg/dL for the duration of the 10 day study): < 200 mg/dL
2 | B2 | 411 ± 51 | 10.5 ± 1.5 | 1961 ± 59 | 7.6 ± 1.1 | 0.85 | 0.81 | Log(y) = −0.0416x + 2.431 | ~100 nM | 125 ± 6.0 | consuming chow at an equivalent rate to GLP1-ELP | significantly decreased GTT AUC compared to GLP1-ELP or ELP-FGF21 | without a significant elevation in insulin | +0.3±0.2% | 14.1±1.6 | reversibility of phase change behavior ([1]; temperature ramped up to 37° C., then down to 20° C.): reversible; body weight % change on day 7 post-treatment (db/db mice [6]; 750 nmol/kg): −2.6±3.3%; blood glucose vs. time AUC (db/db mice [6]; 750 nmol/kg and 1000 nmol/kg, single s.c. injection, vs vehicle): Significant reductions; body weight % change on day 7 post-treatment (db/db mice [6]; 1000 nmol/kg): −2.7±3.7%; ambient blood glucose levels after treatment (db/db mice [6]; all doses, reduced from >300 mg/dL): < 150 mg/dL; persistence of blood glucose effects (db/db mice [6]; highest dose tested, 1000 nmol/kg): 8 days; persistence of blood glucose effects (db/db mice [6]; lowest dose, 250 nmol/kg): 4 days; duration of therapeutic drug levels and protection from hyperglycemia and weight gain (db/db mice [6]; single injection): > 7 days; reduction of body weights (maximum) (db/db mice [6]; two highest doses tested (750 and 1000 nmol/kg)): up to 7.2±2.3%; absorption half-life ([3]; linear regression fit to terminal portion of the data, 1000 nmol/kg s.c.): 182 ± 26.4 h; fasting blood glucose levels (db/db mice [4]; GTT 3 days following the final treatment): 92.7 ± 8.3 mg/dL; negative net weight gain values persisting through (db/db mice [4]; weekly dosing): 12 days; blood glucose levels after overnight 16 h fast (db/db mice [7]; 1000 nmol/kg s.c., fast begun 48 h post-treatment, threshold of hypoglycemia): 50 to 55 mg/dL; ad libitum-fed blood glucose levels (db/db mice [7]; 48 h post-treatment, 1000 nmol/kg s.c., vs vehicle): significant reductions; blood glucose levels during recovery (return to pre-injection baselines) (db/db mice [7]; t=60 to t=120 min post-challenge in GTT): -100 mg/dL
